Measurements as given in patent US20180155451A1 (published 2018).

T1: FcγRIIa R (human FcγRIIa, allotype R, Arg at position 131), extracellular domain with C-terminal His tag (human, UniProt P12318 34-217)
T1 construct: extracellular domain; expressed in FreeStyle293 cells; analyte in Biacore; also called 2aR; FcgRIIa R
T1 sequence (looked up): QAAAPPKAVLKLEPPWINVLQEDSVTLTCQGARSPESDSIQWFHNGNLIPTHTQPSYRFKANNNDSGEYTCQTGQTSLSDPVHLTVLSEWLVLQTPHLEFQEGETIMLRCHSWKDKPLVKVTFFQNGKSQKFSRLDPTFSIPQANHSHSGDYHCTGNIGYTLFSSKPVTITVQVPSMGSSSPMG

B1: GpH7-A5/GpH7-B3 variant S337_09D/GpL16-k0 (antibody, human IgG1, kappa)
heavy 1: not shown
heavy 2: not shown
light: DIVMTQSPLSLPVTPGEPASISCQASESLVHSNRNTYLHWYLQKPGQSPQLLIYKVSNRFSGVPDRFSGSGSGTDFTLKISRVEAEDVGVYYCSQNTHVPPTFGQGTKVEIERTVAAPSVFIFPPSDEQLKSGTASVVCLLNNFYPREAKVQWKVDNALQSGNSQESVTEQDSKDSTYSLSSTLTLSKADYEKHKVYACEVTHQGLSSPVTKSFNRGEC
notes: heterodimerized, mutation in one H chain only; also called He Ab
B2: GpH7-A5/GpH7-B3 variant V266_07I/GpL16-k0 (antibody, human IgG1, kappa)
heavy 1: not shown
heavy 2: not shown
light: B1 light
notes: as for B1
B3: GpH7-A5/GpH7-B3 variant T335_07I/GpL16-k0 (antibody, human IgG1, kappa)
heavy 1: not shown
heavy 2: not shown
light: B1 light
notes: as for B1
B4: GpH7-A5/GpH7-B3 variant A330_19Q/GpL16-k0 (antibody, human IgG1, kappa)
heavy 1: not shown
heavy 2: not shown
light: B1 light
notes: as for B1
B5: GpH7-A5/GpH7-B3 variant E333_14T/GpL16-k0 (antibody, human IgG1, kappa)
heavy 1: not shown
heavy 2: not shown
light: B1 light
notes: as for B1
B6: GpH7-A5/GpH7-B3 variant K326_12R/GpL16-k0 (antibody, human IgG1, kappa)
heavy 1: not shown
heavy 2: not shown
light: B1 light
notes: as for B1
B7: GpH7-A5/GpH7-B3 variant I336_18N/GpL16-k0 (antibody, human IgG1, kappa)
heavy 1: not shown
heavy 2: not shown
light: B1 light
notes: as for B1
B8: GpH7-A5/GpH7-B3 variant T335_01G/GpL16-k0 (antibody, human IgG1, kappa)
heavy 1: not shown
heavy 2: not shown
light: B1 light
notes: as for B1
B9: GpH7-A5/GpH7-B3 variant E333_04F/GpL16-k0 (antibody, human IgG1, kappa)
heavy 1: not shown
heavy 2: not shown
light: B1 light
notes: as for B1
B10: GpH7-A5/GpH7-B3 variant L234_04F/GpL16-k0 (antibody, human IgG1, kappa)
heavy 1: not shown
heavy 2: not shown
light: B1 light
notes: as for B1
B11: GpH7-A5/GpH7-B3 variant I336_03V/GpL16-k0 (antibody, human IgG1, kappa)
heavy 1: not shown
heavy 2: not shown
light: B1 light
notes: as for B1
B12: GpH7-A5/GpH7-B3 variant I336_10E/GpL16-k0 (antibody, human IgG1, kappa)
heavy 1: not shown
heavy 2: not shown
light: B1 light
notes: as for B1
B13: GpH7-A5/GpH7-B3 variant K326_07I/GpL16-k0 (antibody, human IgG1, kappa)
heavy 1: not shown
heavy 2: not shown
light: B1 light
notes: as for B1
B14: GpH7-A5/GpH7-B3 variant S267_09D/GpL16-k0 (antibody, human IgG1, kappa)
heavy 1: not shown
heavy 2: not shown
light: B1 light
notes: as for B1
B15: GpH7-A5/GpH7-B3 variant S337_10E/GpL16-k0 (antibody, human IgG1, kappa)
heavy 1: not shown
heavy 2: not shown
light: B1 light
notes: as for B1
B16: GpH7-A5/GpH7-B3 variant S239_10E/GpL16-k0 (antibody, human IgG1, kappa)
heavy 1: not shown
heavy 2: not shown
light: B1 light
notes: as for B1
B17: GpH7-A5/GpH7-B3 variant Y296_18N/GpL16-k0 (antibody, human IgG1, kappa)
heavy 1: not shown
heavy 2: not shown
light: B1 light
notes: as for B1
B18: GpH7-A5/GpH7-B3 variant A327_09D/GpL16-k0 (antibody, human IgG1, kappa)
heavy 1: not shown
heavy 2: not shown
light: B1 light
notes: as for B1
B19: GpH7-A5/GpH7-B3 variant T335_15Y/GpL16-k0 (antibody, human IgG1, kappa)
heavy 1: not shown
heavy 2: not shown
light: B1 light
notes: as for B1
B20: GpH7-A5/GpH7-B3 variant S337_07I/GpL16-k0 (antibody, human IgG1, kappa)
heavy 1: not shown
heavy 2: not shown
light: B1 light
notes: as for B1
B21: GpH7-A5/GpH7-B3 variant L234_20W/GpL16-k0 (antibody, human IgG1, kappa)
heavy 1: not shown
heavy 2: not shown
light: B1 light
notes: as for B1
B22: GpH7-A5/GpH7-B3 variant K334_13S/GpL16-k0 (antibody, human IgG1, kappa)
heavy 1: not shown
heavy 2: not shown
light: B1 light
notes: as for B1
B23: GpH7-A5/GpH7-B3 variant S267_10E/GpL16-k0 (antibody, human IgG1, kappa)
heavy 1: not shown
heavy 2: not shown
light: B1 light
notes: as for B1
B24: GpH7-A5/GpH7-B3 variant G236_15Y/GpL16-k0 (antibody, human IgG1, kappa)
heavy 1: not shown
heavy 2: not shown
light: B1 light
notes: as for B1
B25: GpH7-A5/GpH7-B3 variant K334_19Q/GpL16-k0 (antibody, human IgG1, kappa)
heavy 1: not shown
heavy 2: not shown
light: B1 light
notes: as for B1
B26: GpH7-A5/GpH7-B3 variant T335_19Q/GpL16-k0 (antibody, human IgG1, kappa)
heavy 1: not shown
heavy 2: not shown
light: B1 light
notes: as for B1
B27: GpH7-A5/GpH7-B3 variant T335_10E/GpL16-k0 (antibody, human IgG1, kappa)
heavy 1: not shown
heavy 2: not shown
light: B1 light
notes: as for B1
B28: GpH7-A5/GpH7-B3 variant K326_01G/GpL16-k0 (antibody, human IgG1, kappa)
heavy 1: not shown
heavy 2: not shown
light: B1 light
notes: as for B1
B29: GpH7-A5/GpH7-B3 variant E333_08L/GpL16-k0 (antibody, human IgG1, kappa)
heavy 1: not shown
heavy 2: not shown
light: B1 light
notes: as for B1
B30: GpH7-A5/GpH7-B3 variant T335_13S/GpL16-k0 (antibody, human IgG1, kappa)
heavy 1: not shown
heavy 2: not shown
light: B1 light
notes: as for B1
B31: GpH7-A5/GpH7-B3 variant S239_08L/GpL16-k0 (antibody, human IgG1, kappa)
heavy 1: not shown
heavy 2: not shown
light: B1 light
notes: as for B1
B32: GpH7-A5/GpH7-B3 variant E333_13S/GpL16-k0 (antibody, human IgG1, kappa)
heavy 1: not shown
heavy 2: not shown
light: B1 light
notes: as for B1
B33: GpH7-A5/GpH7-B3 variant L234_15Y/GpL16-k0 (antibody, human IgG1, kappa)
heavy 1: not shown
heavy 2: not shown
light: B1 light
notes: as for B1
B34: GpH7-A5/GpH7-B3 variant G236_04F/GpL16-k0 (antibody, human IgG1, kappa)
heavy 1: not shown
heavy 2: not shown
light: B1 light
notes: as for B1
B35: GpH7-A5/GpH7-B3 variant G236_14T/GpL16-k0 (antibody, human IgG1, kappa)
heavy 1: not shown
heavy 2: not shown
light: B1 light
notes: as for B1
B36: GpH7-A5/GpH7-B3 variant T335_16H/GpL16-k0 (antibody, human IgG1, kappa)
heavy 1: not shown
heavy 2: not shown
light: B1 light
notes: as for B1
B37: GpH7-B3 variant S337_02A/GpL16-k0 (antibody, human IgG1, kappa)
heavy: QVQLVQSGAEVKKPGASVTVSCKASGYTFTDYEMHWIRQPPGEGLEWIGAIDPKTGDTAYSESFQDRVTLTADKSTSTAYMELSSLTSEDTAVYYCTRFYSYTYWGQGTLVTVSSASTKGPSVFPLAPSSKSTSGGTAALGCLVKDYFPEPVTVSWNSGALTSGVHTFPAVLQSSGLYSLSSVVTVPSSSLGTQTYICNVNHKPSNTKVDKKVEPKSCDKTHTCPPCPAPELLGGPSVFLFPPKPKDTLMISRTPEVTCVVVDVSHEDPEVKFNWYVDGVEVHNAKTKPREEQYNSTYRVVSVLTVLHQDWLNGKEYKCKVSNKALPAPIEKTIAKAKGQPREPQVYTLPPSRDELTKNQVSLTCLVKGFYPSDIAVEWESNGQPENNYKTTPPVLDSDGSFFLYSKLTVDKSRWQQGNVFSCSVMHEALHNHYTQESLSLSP
light: B1 light
notes: homodimerized antibody, mutation in both H chains; also called Ho Ab
B38: GpH7-B3 variant P331_03V/GpL16-k0 (antibody, human IgG1, kappa)
heavy: not shown
light: B1 light
notes: as for B37
B39: GpH7-B3 variant P238_16H/GpL16-k0 (antibody, human IgG1, kappa)
heavy: not shown
light: B1 light
notes: as for B37
B40: GpH7-B3 variant P238_10E/GpL16-k0 (antibody, human IgG1, kappa)
heavy: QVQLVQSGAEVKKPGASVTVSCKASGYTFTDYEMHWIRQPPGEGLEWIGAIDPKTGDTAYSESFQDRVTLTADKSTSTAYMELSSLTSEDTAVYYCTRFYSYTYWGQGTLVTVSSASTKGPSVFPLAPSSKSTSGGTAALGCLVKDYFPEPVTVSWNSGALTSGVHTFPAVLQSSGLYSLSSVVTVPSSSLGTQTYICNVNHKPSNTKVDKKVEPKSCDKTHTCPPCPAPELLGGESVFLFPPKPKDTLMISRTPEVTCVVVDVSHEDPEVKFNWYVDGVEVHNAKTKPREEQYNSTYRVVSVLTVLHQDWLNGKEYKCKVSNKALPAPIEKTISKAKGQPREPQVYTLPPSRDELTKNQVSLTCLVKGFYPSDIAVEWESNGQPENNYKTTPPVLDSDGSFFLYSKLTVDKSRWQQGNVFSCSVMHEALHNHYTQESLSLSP
light: B1 light
notes: as for B37
B41: GpH7-B3 variant P271_09D/GpL16-k0 (antibody, human IgG1, kappa)
heavy: not shown
light: B1 light
notes: as for B37
B42: GpH7-B3 variant P238_19Q/GpL16-k0 (antibody, human IgG1, kappa)
heavy: not shown
light: B1 light
notes: as for B37
B43: GpH7-B3 variant P331_08L/GpL16-k0 (antibody, human IgG1, kappa)
heavy: not shown
light: B1 light
notes: as for B37
B44: GpH7-B3 variant P331_07I/GpL16-k0 (antibody, human IgG1, kappa)
heavy: not shown
light: B1 light
notes: as for B37
B45: GpH7-B3 variant P238_20W/GpL16-k0 (antibody, human IgG1, kappa)
heavy: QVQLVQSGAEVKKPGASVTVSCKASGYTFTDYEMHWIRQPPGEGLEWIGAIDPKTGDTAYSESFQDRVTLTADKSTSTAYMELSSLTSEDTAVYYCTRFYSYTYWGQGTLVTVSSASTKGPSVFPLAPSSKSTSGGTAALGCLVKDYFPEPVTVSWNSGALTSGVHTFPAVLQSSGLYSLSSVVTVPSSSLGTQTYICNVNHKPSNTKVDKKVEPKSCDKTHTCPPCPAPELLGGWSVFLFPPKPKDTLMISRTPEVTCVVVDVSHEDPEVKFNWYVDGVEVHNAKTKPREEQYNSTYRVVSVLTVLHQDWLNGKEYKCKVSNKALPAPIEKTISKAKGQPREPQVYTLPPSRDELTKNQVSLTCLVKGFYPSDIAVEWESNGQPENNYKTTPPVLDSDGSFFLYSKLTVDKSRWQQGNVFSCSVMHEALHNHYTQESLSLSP
light: B1 light
notes: as for B37
B46: GpH7-B3 variant P238_15Y/GpL16-k0 (antibody, human IgG1, kappa)
heavy: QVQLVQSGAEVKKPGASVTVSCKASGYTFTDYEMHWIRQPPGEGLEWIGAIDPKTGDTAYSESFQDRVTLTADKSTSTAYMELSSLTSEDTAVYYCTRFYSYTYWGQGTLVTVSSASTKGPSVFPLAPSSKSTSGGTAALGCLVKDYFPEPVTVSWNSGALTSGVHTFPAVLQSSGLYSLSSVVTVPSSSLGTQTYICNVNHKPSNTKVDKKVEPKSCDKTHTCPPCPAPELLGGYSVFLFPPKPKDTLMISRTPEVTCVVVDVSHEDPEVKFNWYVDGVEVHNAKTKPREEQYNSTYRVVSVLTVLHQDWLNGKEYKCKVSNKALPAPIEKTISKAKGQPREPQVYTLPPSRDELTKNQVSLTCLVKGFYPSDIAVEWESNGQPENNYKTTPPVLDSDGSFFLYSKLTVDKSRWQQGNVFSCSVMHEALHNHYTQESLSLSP
light: B1 light
notes: as for B37
B47: GpH7-B3 variant P331_10E/GpL16-k0 (antibody, human IgG1, kappa)
heavy: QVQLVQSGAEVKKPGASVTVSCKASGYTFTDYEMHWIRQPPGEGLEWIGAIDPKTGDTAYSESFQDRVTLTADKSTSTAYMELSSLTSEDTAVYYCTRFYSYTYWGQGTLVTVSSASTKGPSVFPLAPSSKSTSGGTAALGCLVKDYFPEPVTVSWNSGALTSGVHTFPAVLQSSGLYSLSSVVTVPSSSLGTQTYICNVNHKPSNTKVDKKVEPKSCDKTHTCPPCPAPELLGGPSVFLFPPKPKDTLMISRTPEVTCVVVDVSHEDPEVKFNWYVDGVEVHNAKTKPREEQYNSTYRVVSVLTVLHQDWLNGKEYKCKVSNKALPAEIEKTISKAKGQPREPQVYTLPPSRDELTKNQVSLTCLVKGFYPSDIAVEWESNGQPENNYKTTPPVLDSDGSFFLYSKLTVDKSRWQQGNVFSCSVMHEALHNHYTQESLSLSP
light: B1 light
notes: as for B37
B48: GpH7-B3 variant P271_10E/GpL16-k0 (antibody, human IgG1, kappa)
heavy: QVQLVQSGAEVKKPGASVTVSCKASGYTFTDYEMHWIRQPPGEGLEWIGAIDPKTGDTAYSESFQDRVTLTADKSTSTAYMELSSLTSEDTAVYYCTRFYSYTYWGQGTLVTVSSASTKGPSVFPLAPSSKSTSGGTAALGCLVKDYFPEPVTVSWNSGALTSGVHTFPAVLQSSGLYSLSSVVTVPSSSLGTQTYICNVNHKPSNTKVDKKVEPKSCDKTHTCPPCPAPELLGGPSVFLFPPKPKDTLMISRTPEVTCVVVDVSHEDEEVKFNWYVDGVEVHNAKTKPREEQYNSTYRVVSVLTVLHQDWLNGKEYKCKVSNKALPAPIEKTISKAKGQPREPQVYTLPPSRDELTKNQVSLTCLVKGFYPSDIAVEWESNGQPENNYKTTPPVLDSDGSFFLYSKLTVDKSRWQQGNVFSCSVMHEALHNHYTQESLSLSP
light: B1 light
notes: as for B37
B49: GpH7-B3 variant P331_06M/GpL16-k0 (antibody, human IgG1, kappa)
heavy: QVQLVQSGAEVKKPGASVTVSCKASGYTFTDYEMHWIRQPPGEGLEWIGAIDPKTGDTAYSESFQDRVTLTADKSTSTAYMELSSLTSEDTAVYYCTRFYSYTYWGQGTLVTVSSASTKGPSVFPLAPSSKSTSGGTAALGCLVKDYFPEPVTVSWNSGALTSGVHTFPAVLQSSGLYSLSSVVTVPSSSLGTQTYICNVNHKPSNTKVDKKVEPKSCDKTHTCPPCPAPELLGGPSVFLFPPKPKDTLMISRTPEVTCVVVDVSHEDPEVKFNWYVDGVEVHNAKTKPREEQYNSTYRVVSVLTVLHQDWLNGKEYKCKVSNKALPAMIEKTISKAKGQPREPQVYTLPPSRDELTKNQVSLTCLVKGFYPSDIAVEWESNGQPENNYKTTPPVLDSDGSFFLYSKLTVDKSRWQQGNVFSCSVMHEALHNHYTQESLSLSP
light: B1 light
notes: as for B37
B50: GpH7-B3 variant P331_18N/GpL16-k0 (antibody, human IgG1, kappa)
heavy: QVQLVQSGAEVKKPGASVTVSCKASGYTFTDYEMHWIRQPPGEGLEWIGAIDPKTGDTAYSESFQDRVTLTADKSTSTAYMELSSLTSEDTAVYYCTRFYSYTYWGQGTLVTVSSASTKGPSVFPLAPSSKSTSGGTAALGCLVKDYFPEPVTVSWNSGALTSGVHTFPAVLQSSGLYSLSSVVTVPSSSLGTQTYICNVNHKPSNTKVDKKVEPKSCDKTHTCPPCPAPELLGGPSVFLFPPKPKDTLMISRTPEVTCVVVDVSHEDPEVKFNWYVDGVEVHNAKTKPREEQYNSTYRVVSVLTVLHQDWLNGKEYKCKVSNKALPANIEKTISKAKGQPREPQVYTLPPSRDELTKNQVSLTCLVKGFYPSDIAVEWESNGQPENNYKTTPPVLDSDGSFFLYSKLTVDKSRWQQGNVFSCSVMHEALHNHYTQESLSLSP
light: B1 light
notes: as for B37
B51: GpH7-B3 variant P331_14T/GpL16-k0 (antibody, human IgG1, kappa)
heavy: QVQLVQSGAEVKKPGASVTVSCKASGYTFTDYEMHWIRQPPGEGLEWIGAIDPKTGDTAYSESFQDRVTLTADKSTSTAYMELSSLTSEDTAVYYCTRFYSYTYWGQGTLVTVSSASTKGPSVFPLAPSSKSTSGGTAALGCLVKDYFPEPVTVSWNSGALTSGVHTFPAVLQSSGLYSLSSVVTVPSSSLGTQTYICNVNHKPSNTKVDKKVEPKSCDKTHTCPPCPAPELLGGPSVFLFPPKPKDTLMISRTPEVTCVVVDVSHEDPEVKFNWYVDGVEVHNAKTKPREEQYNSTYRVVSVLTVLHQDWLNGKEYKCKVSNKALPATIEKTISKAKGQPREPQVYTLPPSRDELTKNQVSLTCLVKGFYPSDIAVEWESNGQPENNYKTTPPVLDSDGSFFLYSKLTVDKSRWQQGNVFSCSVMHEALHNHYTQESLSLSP
light: B1 light
notes: as for B37
B52: GpH7-B3 variant P331_13S/GpL16-k0 (antibody, human IgG1, kappa)
heavy: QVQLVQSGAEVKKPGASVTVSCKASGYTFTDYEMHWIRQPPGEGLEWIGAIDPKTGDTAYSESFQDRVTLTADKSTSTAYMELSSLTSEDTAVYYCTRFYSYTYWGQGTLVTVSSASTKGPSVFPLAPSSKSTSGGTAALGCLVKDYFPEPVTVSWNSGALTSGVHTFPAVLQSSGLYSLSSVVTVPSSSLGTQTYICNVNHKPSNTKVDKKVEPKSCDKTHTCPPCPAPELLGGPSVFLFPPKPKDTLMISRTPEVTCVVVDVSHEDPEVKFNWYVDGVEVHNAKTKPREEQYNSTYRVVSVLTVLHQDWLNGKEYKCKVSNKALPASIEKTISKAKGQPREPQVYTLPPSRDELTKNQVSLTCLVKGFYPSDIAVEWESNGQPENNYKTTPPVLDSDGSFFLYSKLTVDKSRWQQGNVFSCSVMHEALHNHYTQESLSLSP
light: B1 light
notes: as for B37
B53: GpH7-B3 variant P331_09D/GpL16-k0 (antibody, human IgG1, kappa)
heavy: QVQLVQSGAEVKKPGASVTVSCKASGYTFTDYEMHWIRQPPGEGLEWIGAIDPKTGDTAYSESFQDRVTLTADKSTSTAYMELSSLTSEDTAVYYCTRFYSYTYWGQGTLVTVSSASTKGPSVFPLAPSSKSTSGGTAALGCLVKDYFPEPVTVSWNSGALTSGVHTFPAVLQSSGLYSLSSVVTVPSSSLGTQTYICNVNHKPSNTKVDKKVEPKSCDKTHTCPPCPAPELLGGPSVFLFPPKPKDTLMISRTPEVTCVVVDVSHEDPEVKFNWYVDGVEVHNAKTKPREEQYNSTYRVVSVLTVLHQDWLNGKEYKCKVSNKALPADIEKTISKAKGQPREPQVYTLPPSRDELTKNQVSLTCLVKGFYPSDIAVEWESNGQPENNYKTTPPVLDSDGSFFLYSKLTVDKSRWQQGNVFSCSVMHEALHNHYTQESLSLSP
light: B1 light
notes: as for B37

The binders below were run against FcγRIIa H (human FcγRIIa, allotype with His at position 131), extracellular domain with C-terminal His tag (human, UniProt P12318 34-217) (assay: SPR (Biacore), antibody captured on antigen peptide chip, FcγR as analyte; relative to HeCon Ab GpH7-A5/GpH7-B3/GpL16-k0 = 100).

He/Con_2aH [control = 100] | Binder
107 | B1
106 | B2
108 | B3
102 | B4
100 | B5
101 | B6
103 | B7
103 | B8
102 | B9
120 | B10
102 | B11
102 | B12
100 | B13
105 | B14
102 | B15
112 | B16
104 | B17
105 | B18

He/Con_2aH [control = 100] | Binder
106 | B19
101 | B20
114 | B21
102 | B22
102 | B23
136 | B24
101 | B25
103 | B26
108 | B27
100 | B28
102 | B29
106 | B30
105 | B31
101 | B32
120 | B33
118 | B34
103 | B35
105 | B36

Each binder was assayed against T1, FcγRIIa R (human FcγRIIa, allotype R, …) (assay: SPR (Biacore), relative binding vs GpH7-B3/GpL16-k0).
Method: Analysis of interaction between objective antibody and the FcγR was carried out using Biacore T100 (GE Healthcare). HBS-EP+ (GE Healthcare) was used as the running buffer, and the measurement temperature was set to 25° C. Chips produced by immobilizing the antigen peptide by the amine coupling method to a Series S Sencor Chip CM5 (GE Healthcare), or alternatively, chips produced by allowing preliminarily biotinylated antigen peptides to interact with and immobilize onto a Series S Sensor Chip SA (certified) (GE Healthcare) were used. Antibodies of interest were captured onto an antigen peptide-immobilized chip, and allowed to interact to each FcγR diluted with running buffer. To regenerate and repeatedly use the chip, the antibodies captured on the chip were washed off by reacting 10 mM glycine-HCl, pH 1.5.
The FcγR-binding activity of each antibody was assessed primarily using as an indicator the FcγR-binding activity and dissociation constant for FcγR.

Ho/Con_2aR | Binder
102 relative, control = 100 | B37
89.1 relative, control = 100 | B38
25.5 relative, control = 100 | B39
21.4 relative, control = 100 | B40
92.4 relative, control = 100 | B41
19.4 relative, control = 100 | B42
74.4 relative, control = 100 | B43
67 relative, control = 100 | B44
25.7 relative, control = 100 | B45
95.9 relative, control = 100 | B46
94.6 relative, control = 100 | B47
88.8 relative, control = 100 | B48
79.8 relative, control = 100 | B49
76.9 relative, control = 100 | B50
80.8 relative, control = 100 | B51
87.8 relative, control = 100 | B52
88.8 relative, control = 100 | B53
